Experimental data published in patent US6870033.
Where two headings read alike, the source gives them in different places.

T1: recombinant human IL-8, (ser-IL-8)72 (human, UniProt P10145 28-99)
T1 construct: mature; radio-iodinated when used as tracer; also called human wild type IL-8; wt IL-8
T1 sequence (looked up): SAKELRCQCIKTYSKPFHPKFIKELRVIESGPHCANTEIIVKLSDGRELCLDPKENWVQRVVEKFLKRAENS

T2: rhesus IL-8 (rhesus, UniProt P67813 23-101, limits assumed)
T2 sequence (looked up): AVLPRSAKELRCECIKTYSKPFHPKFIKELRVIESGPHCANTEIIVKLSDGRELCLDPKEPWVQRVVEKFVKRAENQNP


Assays:
[1] = biological target: T1, recombinant human IL-8, (ser-IL-8)72; assay: inhibition of 125I-IL-8 binding to human neutrophils
[2] = biological target: T1, recombinant human IL-8, (ser-IL-8)72; assay: as above; remark: listed apart in the source
rhesus IL-8 = biological target: T2, rhesus IL-8; assay: cell-based or functional assay
[3] = biological target: T1, recombinant human IL-8, (ser-IL-8)72; assay: cell-based or functional assay

Row | Binder | IC50 [2] [nM] | fold decrease in IL-8 binding (against F(ab)-1) [1] [fold] | other results
1 | humanized 6G425 F(ab)-1 (Fab, V domains shown, Fab with human kappa subgroup I light chain and human IgG1 subgroup III heavy chain (vector pEMX1); also called version 1; VI) VH: EVQLVESGGGLVQPGGSLRLSCAASGYSFSSHYMHWVRQAPGKGLEWVGYIDPSNGETTYNQKFKGRFTISRDNSKNTLYLQMNSLRAEDTAVYYCARGDYRYNGDWFFDVWGQGTLVTVSS VL: DIQMTQSPSSLSASVGDRVTITCRSSQSLVHGIGNTYLHWYQQKPGKAPKLLIYKVSNRFSGVPSRFSGSGSGTDFTLTISSLQPEDFATYYCSQSTHVPLTFGQGTKVEIKR | 63 | – | IC50 [1]: 40 nM; fold reduction in binding affinity (against the chimeric F(ab) of Table 4) [1]: 5.5 fold
2 | humanized 6G425 F(ab)-7 (Fab, V domains shown, Template F(ab)-6; Fab constant parts as F(ab)-1; also called version 16) VH: EVQLVESGGGLVQPGGSLRLSCAASGYSFSSHYMHWVRQAPGKGLEWVGYIDPSNGETTYNQKFKGRFTLSRDNSKNTAYVQMNSLRAEDTAVYYCARGDYRYNGDWFFDVWGQGTLVTVSS VL: DIQMTQSPSSLSASVGDRVTITCRSSQSLVHGIGNTYLHWYQQKPGKAPKLLIYKVSNRFSGVPSRFSGSGSGTDFTLTISSLQPEDFATYYCSQSTHVPLTFGQGTKVEIKR | 38.4 | – | –
3 | humanized 6G425 F(ab)-2 (Fab, V domains shown, Template F(ab)-1; Fab constant parts as F(ab)-1; also called version 2) VH: EVQLVESGGGLVQPGGSLRLSCAASGYSFSSHYMHWVRQAPGKGLEWVGYIDPSNGETTYNQKFKGRATISRDNSKNTLYLQMNSLRAEDTAVYYCARGDYRYNGDWFFDVWGQGTLVTVSS VL: DIQMTQSPSSLSASVGDRVTITCRSSQSLVHGIGNTYLHWYQQKPGKAPKLLIYKVSNRFSGVPSRFSGSGSGTDFTLTISSLQPEDFATYYCSQSTHVPLTFGQGTKVEIKR | 106 | < 2 | –
4 | humanized 6G425 F(ab)-8 (6G4.2.5V19) (Fab, V domains shown) VH: EVQLVESGGGLVQPGGSLRLSCAASGYSFSSHYMHWVKQAPGKGLEWVGYIDPSNGETTYNQKFKGRFTLSRDNSKNTAYLQMNSLRAEDTAVYYCARGDYRYNGDWFFDVWGQGTLVTVSS VL: DIQMTQSPSSLSASVGDRVTITCRSSQSLVHGIGNTYLHWYQQKPGKAPKLLIYKVSNRFSGVPSRFSGSGSGTDFTLTISSLQPEDFATYYCSQSTHVPLTFGQGTKVEIKR | – | – | IC50, neutrophil chemotaxis (rhesus IL-8): 10 nM; IC50, neutrophil chemotaxis [3]: 0.12 nM
5 | humanized 6G425 F(ab)-3 (Fab, V domains shown, Template F(ab)-1; Fab constant parts as F(ab)-1; also called version 3) VH: EVQLVESGGGLVQPGGSLRLSCAASGYSFSSHYMHWVRQAPGKGLEWVGYIDPSNGETTYNQKFKGRFTISVDNSKNTLYLQMNSLRAEDTAVYYCARGDYRYNGDWFFDVWGQGTLVTVSS VL: DIQMTQSPSSLSASVGDRVTITCRSSQSLVHGIGNTYLHWYQQKPGKAPKLLIYKVSNRFSGVPSRFSGSGSGTDFTLTISSLQPEDFATYYCSQSTHVPLTFGQGTKVEIKR | 79.8 | < 2 | –
